According to patent US12269859B2, “Synthetic immune receptors and methods of use thereof” (Angeles Therapeutics, Inc., priority 2016, dated 2025):

Tested on: target antigen-expressing cell line
Assay: Jurkat NFAT-GFP assay, coculture with target cell lines expressing the respective target antigen (summary Table 10A)
Assay type: cell-based, human
Parameters: key: The signs +/−, +, 2+ etc. after the name of the cell lines indicate the relative degree of positivity on the Jurkat-NFAT-GFP assay as measured by the % GFP positive cells; +: relative degree of positivity on the Jurkat-NFAT-GFP assay as measured by the % GFP positive cells; 2+: relative degree of positivity on the Jurkat-NFAT-GFP assay as measured by the % GFP positive cells
How it was run: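 Read-out: % GFP+ cells by FACS. SIR-transduced, puromycin-selected Jurkat NFAT-GFP (IL-2 promoter reporter) cocultured ~4–18 h with target line, E:T ~1:2; parental cells as control; graded +/−, +, 2+ relative to parental.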

Row | Molecule | NFAT-GFP ASSAY Positive Cell lines (coculture with RAJI cells) | NFAT-GFP ASSAY Positive Cell lines (coculture with NALM6 cells) | NFAT-GFP ASSAY Positive Cell lines (coculture with HEL cells)
1 | 083016-B06 (protein, Polynucleotide encoding a Synthetic Immune Receptor (SIR)) MALPVTALLLPLALLLHAARPLEGKPIPNPLLGLDSTGSGEDLKNVFPPEVAVFEPSKAEIAHTQKATLVCLATGFYPDHVELSWWVNGKEVHSGVCTDPQPLKEQPALNDSRYCLSSRLRVSATFWQNPRNHFRCQVQFYGLSENDEWTQDRAKPVTQIVSAEAWGRADCGITSASYHQGVLSATILYEILLGKATLYAVLVSALVLMAMVKRKDSRGRAKRSGSGATNFSLLKQAGDVEENPGPTSMALPVTALLLPLALLLHAARPDIVMTQSHKFMSTSVGDRVSVTCKASQNVGNNVAWYQQKPGQSPKVLIYSASYRYSGVPDRFTGSGSGTDFTLTISNVQSEDLAEYFCQQYNTYPFTFGSGTKLEIKGGGGSGGGGSGGGGSEVQLEESGGGLVQPGGSMKLSCVASGFTFSNYWMNWVRQSPEKGLEWVAEIRFKSHNYATHFAESVKGRFTISRDDSKSSVYLQMNNLRAEDTGIYYCTRRIGNSDYDWWYFDVWGAGTSVTVSSASTREQKLISEEDLGSGTPFPSLAPPIMLLVDGKQQMVVVCLVLDVAPPGLDSPIWFSAGNGSALDAFTYGPSPATDGTWTNLAHLSLPSEELASWEPLVCHTGPGAEGHSRSTQPMHLSGEASTARTCPQEPLRGTPGGALWLGVLRLLLFKLLLFDLLLTCSCLCDPAGPLPSPATTTRLRALGSHRLHPATETGGREATSSPRPQPRDRRWGDTPPGRKPGSPVRAKRSGSGVKQTLNFDLLKLAGDVESNPGPSRSRGHMTEYKPTVRLATRDDVPRAVRTLAAAFADYPATRHTVDPDRHIERVTELQELFLTRVGLDIGKVWVADDGAAVAVWTTPESVEAGAVFAEIGPRMAELSGSRLAAQQQMEGLLAPHRPKEPAWFLATVGVSPDHQGKGLGSAVVLPGVEAAERAGVPAFLETSAPRNLPFYERLGFTVTADVEVPEGPRTWCMTRKPGA | RAJI (+) |  | 
2 | 032216-Y07 (protein, Polynucleotide encoding a Synthetic Immune Receptor (SIR)) MALPVTALLLPLALLLHAARPDIVMTQSHKFMSTSVGDRVSVTCKASQNVGNNVAWYQQKPGQSPKVLIYSASYRYSGVPDRFTGSGSGTDFTLTISNVQSEDLAEYFCQQYNTYPFTFGSGTKLEIKLEGKPIPNPLLGLDSTGSGEDLKNVFPPEVAVFEPSKAEIAHTQKATLVCLATGFYPDHVELSWWVNGKEVHSGVCTDPQPLKEQPALNDSRYCLSSRLRVSATFWQNPRNHFRCQVQFYGLSENDEWTQDRAKPVTQIVSAEAWGRADCGITSASYHQGVLSATILYEILLGKATLYAVLVSALVLMAMVKRKDSRGRAKRSGSGATNFSLLKQAGDVEENPGPTSMDWIWRILFLVGAATGAHSFEEVQLEESGGGLVQPGGSMKLSCVASGFTFSNYWMNWVRQSPEKGLEWVAEIRFKSHNYATHFAESVKGRFTISRDDSKSSVYLQMNNLRAEDTGIYYCTRRIGNSDYDWWYFDVWGAGTSVTVSSASTREQKLISEEDGSGIQNPDPAVYQLRDSKSSDKSVCLFTDFDSQTNVSQSKDSDVYITDKCVLDMRSMDFKSNSAVAWSNKSDFACANAFNNSIIPEDTFFPSSDVPCDVKLVEKSFETDTNLNFQNLSVIGFRILLLKVAGFNLLMTLRLWSSRAKRSGSGVKQTLNFDLLKLAGDVESNPGPSRGHMTEYKPTVRLATRDDVPRAVRTLAAAFADYPATRHTVDPDRHIERVTELQELFLTRVGLDIGKVWVADDGAAVAVWTTPESVEAGAVFAEIGPRMAELSGSRLAAQQQMEGLLAPHRPKEPAWFLATVGVSPDHQGKGLGSAVVLPGVEAAERAGVPAFLETSAPRNLPFYERLGFTVTADVEVPEGPRTWCMTRKPGA | RAJI (+) |  | 
3 | 090116-K02 (protein, Synthetic Immune Receptor (SIR)) MALPVTALLLPLALLLHAARPLEGKPIPNPLLGLDSTGSGEDLKNVFPPEVAVFEPSKAEIAHTQKATLVCLATGFYPDHVELSWWVNGKEVHSGVCTDPQPLKEQPALNDSRYCLSSRLRVSATFWQNPRNHFRCQVQFYGLSENDEWTQDRAKPVTQIVSAEAWGRADCGITSASYHQGVLSATILYEILLGKATLYAVLVSALVLMAMVKRKDSRGRAKRSGSGATNFSLLKQAGDVEENPGPTSMALPVTALLLPLALLLHAARPDIVMTQSHKFMSTSVGDRVSVTCKASQNVGNNVAWYQQKPGQSPKVLIYSASYRYSGVPDRFTGSGSGTDFTLTISNVQSEDLAEYFCQQYNTYPFTFGSGTKLEIKGGGGSGGGGSGGGGSEVQLEESGGGLVQPGGSMKLSCVASGFTFSNYWMNWVRQSPEKGLEWVAEIRFKSHNYATHFAESVKGRFTISRDDSKSSVYLQMNNLRAEDTGIYYCTRRIGNSDYDWWYFDVWGAGTSVTVSSASTREQKLISEEDGSGIQNPDPAVYQLRDSKSSDKSVCLFTDFDSQTNVSQSKDSDVYITDKCVLDMRSMDFKSNSAVAWSNKSDFACANAFNNSIIPEDTFFPSSDVPCDVKLVEKSFETDTNLNFQNLSVIGFRILLLKVAGFNLLMTLRLWSSRAKRSGSGVKQTLNFDLLKLAGDVESNPGPSRGHMTEYKPTVRLATRDDVPRAVRTLAAAFADYPATRHTVDPDRHIERVTELQELFLTRVGLDIGKVWVADDGAAVAVWTTPESVEAGAVFAEIGPRMAELSGSRLAAQQQMEGLLAPHRPKEPAWFLATVGVSPDHQGKGLGSAVVLPGVEAAERAGVPAFLETSAPRNLPFYERLGFTVTADVEVPEGPRTWCMTRKPGA | RAJI (2+), NALM6 | (2+) | 
4 | 092216-B03 (protein, Synthetic Immune Receptor (SIR)) MALPVTALLLPLALLLHAARPLEGKPIPNPLLGLDSTGSGEDLKNVFPPEVAVFEPSKAEIAHTQKATLVCLATGFYPDHVELSWWVNGKEVHSGVCTDPQPLKEQPALNDSRYCLSSRLRVSATFWQNPRNHFRCQVQFYGLSENDEWTQDRAKPVTQIVSAEAWGRADCGITSASYHQGVLSATILYEILLGKATLYAVLVSALVLMAMVKRKDSRGRAKRSGSGATNFSLLKQAGDVEENPGPTSMALPVTALLLPLALLLHAARPDQIVLTQSPAIMSASPGEKVTISCSASSSVSYMYWYQQKPGSSPKPWIYRTSNLASGVPARFSGSGSGTSYSLTISNMEAEDAAAYYCQQYHSYPTTFGGGTKLEVKGGGGSGGGGSGGGGSEVQLVESGGGLVQPKGSLKLSCAASGFSFNTYAMNWVRQAPGKGLEWIAHIRSKSNNFATYYADSVKDRFSISRDASENILFLQMNNLKTEDTAMYYCVRQGGDFPMDYWGQGTSVTVSSTREQKLISEEDGSGIQNPDPAVYQLRDSKSSDKSVCLFTDFDSQTNVSQSKDSDVYITDKCVLDMRSMDFKSNSAVAWSNKSDFACANAFNNSIIPEDTFFPSSDVPCDVKLVEKSFETDTNLNFQNLSVIGFRILLLKVAGFNLLMTLRLWSSRAKRSGSGVKQTLNFDLLKLAGDVESNPGPSRGHMTEYKPTVRLATRDDVPRAVRTLAAAFADYPATRHTVDPDRHIERVTELQELFLTRVGLDIGKVWVADDGAAVAVWTTPESVEAGAVFAEIGPRMAELSGSRLAAQQQMEGLLAPHRPKEPAWFLATVGVSPDHQGKGLGSAVVLPGVEAAERAGVPAFLETSAPRNLPFYERLGFTVTADVEVPEGPRTWCMTRKPGA |  |  | HEL (+)
5 | 091316-A01 (protein, Synthetic Immune Receptor (SIR)) MALPVTALLLPLALLLHAARPLEGKPIPNPLLGLDSTGSGEDLKNVFPPEVAVFEPSKAEIAHTQKATLVCLATGFYPDHVELSWWVNGKEVHSGVCTDPQPLKEQPALNDSRYCLSSRLRVSATFWQNPRNHFRCQVQFYGLSENDEWTQDRAKPVTQIVSAEAWGRADCGITSASYHQGVLSATILYEILLGKATLYAVLVSALVLMAMVKRKDSRGRAKRSGSGATNFSLLKQAGDVEENPGPTSMALPVTALLLPLALLLHAARPDIVMTQAAPSIPVTPGESVSISCRSDKSLLHSNGNTYLFWFLQRPGQSPQLLIYRMSNLASGVPDRFSGSGSGTAFTLRISGVEAEDVGVYYCMQHLEYPYTFGGGTKLEIKGGGGSGGGGSGGGGSQVQLQQSGPELVKPGASVKMSCKASGYAFSSSWLNWVRQRPGKGLEWIGRIYPGDGENHYNGKFKGKATLTADKSSSTGYMQLSSLTSEDSAVYFCASYYEGGYWGQGTLITVSATREQKLISEEDGSGIQNPDPAVYQLRDSKSSDKSVCLFTDFDSQTNVSQSKDSDVYITDKCVLDMRSMDFKSNSAVAWSNKSDFACANAFNNSIIPEDTFFPSSDVPCDVKLVEKSFETDTNLNFQNLSVIGFRILLLKVAGFNLLMTLRLWSSRAKRSGSGVKQTLNFDLLKLAGDVESNPGPSRGHMTEYKPTVRLATRDDVPRAVRTLAAAFADYPATRHTVDPDRHIERVTELQELFLTRVGLDIGKVWVADDGAAVAVWTTPESVEAGAVFAEIGPRMAELSGSRLAAQQQMEGLLAPHRPKEPAWFLATVGVSPDHQGKGLGSAVVLPGVEAAERAGVPAFLETSAPRNLPFYERLGFTVTADVEVPEGPRTWCMTRKPGA |  |  | HEL (+/−)
6 | 101817-B02 (protein) MALPVTALLLPLALLLHAARPEIVLTQSPATLSLSPGERATLSCSASSSVSYMYWYQQKPGQAPRLLIYRTSNLASGIPARFSGSGSGTDFTLTISSLEPEDFAVYYCQQYHSYPTTFGQGTKVEIKRTVLEIQNPDPAVYQLRDSKSSDKSVCLFTDFDSQTNVSQSKDSDVYITDKCVLDMRSMDFKSNSAVAWSNKSDFACANAFNNSIIPEDTFFPSSDVPCDVKLVEKSFETDTNLNFQNLSVIGFRILLLKVAGFNLLMTLRLWSSRAKRSGSGVKQTLNFDLLKLAGDVESNPGPTSMDWIWRILFLVGAATGAHSFEEVQLVESGGGLVQPGGSLRLSCAASGFSFNTYAMNWVRQAPGKGLEWVSHIRSKSNNFATYYADSVKDRFTISRDNAKNSLYLQMNSLRAEDTAVYYCARQGGDFPMDYWGQGTLVTVSSTREDLKNVFPPEVAVFEPSKAEIAHTQKATLVCLATGFYPDHVELSWWVNGKEVHSGVCTDPQPLKEQPALNDSRYCLSSRLRVSATFWQNPRNHFRCQVQFYGLSENDEWTQDRAKPVTQIVSAEAWGRADCGITSASYHQGVLSATILYEILLGKATLYAVLVSALVLMAMVKRKDSRGRAKRSGSGATNFSLLKQAGDVEENPGPSRGHMTEYKPTVRLATRDDVPRAVRTLAAAFADYPATRHTVDPDRHIERVTELQELFLTRVGLDIGKVWVADDGAAVAVWTTPESVEAGAVFAEIGPRMAELSGSRLAAQQQMEGLLAPHRPKEPAWFLATVGVSPDHQGKGLGSAVVLPGVEAAERAGVPAFLETSAPRNLPFYERLGFTVTADVEVPEGPRTWCMTRKPGA |  |  | HEL (+)
